Results from publication PMC10643122.

What was measured:
[1] = target: full-length LRRK1 (Leucine Rich Repeat Kinase 1) (human) (UniProt Q38SD2); experiment: mass photometry; full-length LRRK1 diluted to 100 nM in 20 mM HEPES pH 7.4, 150 mM NaCl, 2.5 mM MgCl2, 1 mM GDP, 0.5 mM TCEP, 0.5% glycerol; 30 min at room temperature; Refeyn TwoMP; Gaussian fits of the histograms, law of mass action; dimer to monomers; estimated Kd
[2] = target: full-length LRRK1 (Leucine Rich Repeat Kinase 1) (human) (UniProt Q38SD2); experiment: cryo-EM structure; 5.2 μM LRRK1(FL) with GDP, 0.06% brij-35 added directly before vitrification; C2 symmetry

A Kd [1] of 600 nM and a stoichiometry N [2] of 2 were found for “full-length LRRK1 (Leucine Rich Repeat Kinase 1), Q38SD2-1 1-2015” in this work.
